In patent publication US20240182549A1 (published 2024):

B1: peptide-IgG 33^LR1 (peptide p102 fused to the N-terminus of the light chain of IgG 15033) (antibody)
heavy: not shown
light: ECWEWSYQLQEWSPCPGGGGSGGGGSGGGGSGGGGSDIQMTQSPSSLSASVGDRVTITCRASQSVSSAVAWYQQKPGKAPKLLIYSASDLYSGVPSRFSGSRSGTDFTLTISSLQPEDFATYYCQQSYRYPITFGQGTKVEIKRTVAAPSVFIFPPSDEQLKSGTASVVCLLNNFYPREAKVQWKVDNALQSGNSQESVTEQDSKDSTYSLSSTLTLSKADYEKHKVYACEVTHQGLSSPVTKSFNRGEC
B2: IgG 15031 (antibody, V domains shown)
VH: EVQLVESGGGLVQPGGSLRLSCAASGFDLTGSYMHWVRQAPGKGLEWVAGISASGGATAYADSVKGRFTISADTSKNTAYLQMNSLRAEDTAVYYCARSRSSSYSSSGWRYYSGAFDYWGQGTLVTVSS
VL: DIQMTQSPSSLSASVGDRVTITCRASQSVSSAVAWYQQKPGKAPKLLIYSASDLYSGVPSRFSGSRSGTDFTLTISSLQPEDFATYYCQQGSYLFTFGQGTKVEIKR
B3: peptide-IgG 33^HN1 (peptide p16 fused to the N-terminus of the heavy chain of IgG 15033) (antibody)
heavy: not shown
light: DIQMTQSPSSLSASVGDRVTITCRASQSVSSAVAWYQQKPGKAPKLLIYSASDLYSGVPSRFSGSRSGTDFTLTISSLQPEDFATYYCQQSYRYPITFGQGTKVEIKRTVAAPSVFIFPPSDEQLKSGTASVVCLLNNFYPREAKVQWKVDNALQSGNSQESVTEQDSKDSTYSLSSTLTLSKADYEKHKVYACEVTHQGLSSPVTKSFNRGEC
B4: peptide-IgG 33^HR1 (peptide p102 fused to the N-terminus of the heavy chain of IgG 15033) (antibody)
heavy: not shown
light: B3 light
B5: peptide-IgG 33^LN1 (peptide p16 fused to the N-terminus of the light chain of IgG 15033) (antibody)
heavy: not shown
light: DFDFAENWMEQLKVMLGGGGSGGGGSGGGGSGGGGSDIQMTQSPSSLSASVGDRVTITCRASQSVSSAVAWYQQKPGKAPKLLIYSASDLYSGVPSRFSGSRSGTDFTLTISSLQPEDFATYYCQQSYRYPITFGQGTKVEIKRTVAAPSVFIFPPSDEQLKSGTASVVCLLNNFYPREAKVQWKVDNALQSGNSQESVTEQDSKDSTYSLSSTLTLSKADYEKHKVYACEVTHQGLSSPVTKSFNRGEC
B6: 15031 Fab-IgG (tetravalent) (antibody)
heavy: not shown
light: DIQMTQSPSSLSASVGDRVTITCRASQSVSSAVAWYQQKPGKAPKLLIYSASDLYSGVPSRFSGSRSGTDFTLTISSLQPEDFATYYCQQGSYLFTFGQGTKVEIKRTVAAPSVFIFPPSDEQLKSGTASVVCLLNNFYPREAKVQWKVDNALQSGNSQESVTEQDSKDSTYSLSSTLTLSKADYEKHKVYACEVTHQGLSSPVTKSFNRGEC
B7: 15031 IgG-Fab (tetravalent) (antibody)
heavy: not shown
light: B6 light

Columns and labels:
[1] = target: T1, SARS-CoV-2 S protein ectodomain trimer (residues 1-1211, foldon trimerization motif, 6xHis tag, AviT (SARS-CoV-2; bacteriophage T4, UniProt P0DTC2 14-1211; P10104 458-484)
[2] = target: T1, SARS-CoV-2 S protein ectodomain trimer …; test: ELISA on biotinylated S protein trimer captured with immobilized streptavidin
[3] = target: T1, SARS-CoV-2 S protein ectodomain trimer …; test: BLI on immobilized S protein ECD
[4] = target: T1, SARS-CoV-2 S protein ectodomain trimer …; test: BLI on immobilized S protein

Binder | Kd [1] [pM] | koff [1] [s⁻¹] | kon [1] [M⁻¹ s⁻¹] | binding result [2] | fold improvement of apparent KD relative to IgG 15033 [3] [fold] | binding result [4]
B1 | 6.1 | 2.2e-06 | 350000 |  |  | 
B2 |  |  |  | binds |  | 
B3 | 24 | 3.8e-05 | 1.6e+06 |  |  | 
B4 | < 1 | < 1e-07 | 1.2e+06 |  | > 100 | 
B5 | < 1 | < 1e-07 | 1.1e+06 |  | > 100 | 
B6 |  |  |  |  |  | binds
B7 |  |  |  |  |  | binds
